In patent publication US20260098095A1 (Hoffmann-La Roche, published 2026):

Tests used:
[1] = target: T1, HLA-A2/MAGE-A4 peptide MHC (pMHC) complex on cells (human); assay: cell-based or functional assay
[2] = target: T1, HLA-A2/MAGE-A4 peptide MHC (pMHC) …; assay: cell-based or functional assay; remark: listed apart in the source
[3] = target: T2, HLA-A2/MAGE-A4p230-239 complex (human); assay: SPR Biacore T200, antibody captured by anti-human Fc, pMHC complex as analyte, 25 C, 1:1 Langmuir fit
T2 construct: also called HLA-A2/MAGEp230-239
Method: The dissociation phase was monitored for 240 s and triggered by switching from the sample solution to HBS-EP+. The chip surface was regenerated after every cycle using an injection of 3M MgCl₂ at 10 μl/min for 30 sec. Bulk refractive index differences were corrected for by subtracting the response obtained on the reference flow cell which contains the anti-human Fc antibody, but without HLA-A2/MAGE-A4 antibody captured on it. The affinity constants were derived from the kinetic rate constants by fitting to a 1:1 Langmuir binding using the BIAeval software (GE Healthcare). The measurement was performed in triplicate with independent dilution series.

B1: Molecule R (bispecific antibody, human IgG1, kappa, L234A L235A)
heavy 1: not shown
heavy 2: AQLVESGGGLVQPGGSLRLSCAASAYFSFKAMSWVRQAPGKGLEWVGSISPSGGSTYYNDNVLGRFTISRDNSKNTLYLQMNSLRAEDTAVYYCAKDVGFFDEWGQGTLVTVSSASTKGPSVFPLAPSSKSTSGGTAALGCLVEDYFPEPVTVSWNSGALTSGVHTFPAVLQSSGLYSLSSVVTVPSSSLGTQTYICNVNHKPSNTKVDEKVEPKSCDKTHTCPPCPAPEAAGGPSVFLFPPKPKDTLMISRTPEVTCVVVDVSHEDPEVKFNWYVDGVEVHNAKTKPREEQYNSTYRVVSVLTVLHQDWLNGKEYKCKVSNKALGAPIEKTISKAKGQPREPQVCTLPPSRDELTKNQVSLSCAVKGFYPSDIAVEWESNGQPENNYKTTPPVLDSDGSFFLVSKLTVDKSRWQQGNVFSCSVMHEALHNHYTQKSLSLSP
light 1: DIQMTQSPSSLSASVGDRVTITCRASQSISSYLAWYQQKPGKAPKLLIYDASIRDIGVPSRFSGSGSGTDFTLTISSLQPEDFATYYCQQYSSYPYTFGQGTKLEIKRTVAAPSVFIFPPSDRKLKSGTASVVCLLNNFYPREAKVQWKVDNALQSGNSQESVTEQDSKDSTYSLSSTLTLSKADYEKHKVYACEVTHQGLSSPVTKSFNRGEC
light 2: EVQLVESGGGLVQPGGSLRLSCAASGYSFTGYTMNWVRQAPGKGLEWVALINPYKGVSTYNQKFKDRFTISVDKSKNTAYLQMNSLRAEDTAVYYCARSGYYGDSDWYFDVWGQGTLVTVSSASVAAPSVFIFPPSDEQLKSGTASVVCLLNNFYPREAKVQWKVDNALQSGNSQESVTEQDSKDSTYSLSSTLTLSKADYEKHKVYACEVTHQGLSSPVTKSFNRGEC
B1 was tested, and the “EC50 (nM), T-cell mediated lysis of A375 cells, 48 h” value [1] was 1.47 nM, the “EC50 (nM), T-cell mediated lysis of NCI-H2023 cells, 48 h” value [1] was 1.06 nM and the “EC50 (nM), T-cell mediated lysis of UMUC-3 cells, 48 h” value [1] was 0.57 nM. For the same binder, the “EC50 [pM], T-cell mediated lysis of A375 HLA-A2 overexpressing cells, 24 h” value [2] was 0.08 pM, the “EC50 [pM], T-cell mediated lysis of A375 cells, 24 h” value [2] was 0.6 pM and the Kd [3] was 13.1 nM. It also gave a koff [3] of 0.0436 s⁻¹ and a kon [3] of 3.33e+06 M⁻¹ s⁻¹.
